Data published in patent US20110038881A1, “PROGNOSTIC ASSAY FOR DETERMINING T CELL RESPONSE TO HLA ANTIGENS AND USE THEREOF IN FIELD OF TISSUE TRANSPLANTATION” (priority 2007, published 2011).

What was measured:
Test in all cases: competition binding
Details in all cases: modification not given
[1] = molecular target: HLA-DRB1*0101 (human)
[2] = molecular target: HLA-DRB1*0401 (human)
[3] = molecular target: HLA-DRB1*0701 (human)
[4] = molecular target: HLA-DRB1*1101 (human)
[5] = molecular target: HLA-DRB1*1301 (human)
[6] = molecular target: HLA-DRB1*1501 (human)
[7] = molecular target: HLA-DRB1*0301 (human)
[8] = molecular target: HLA-DRB3*0101 (human)
[9] = molecular target: HLA-DRB4*0101 (human)
[10] = molecular target: HLA-DRB5*0101 (human)

Row | Binder | IC50 [1] [µM] | IC50 [2] [µM] | IC50 [3] [µM] | IC50 [4] [µM] | IC50 [5] [µM] | IC50 [6] [µM] | IC50 [7] [µM] | IC50 [8] [µM] | IC50 [9] [µM] | IC50 [10] [µM]
1 | IPIVGIIAGLVLFGA [p53*] | 0.026 | > 100 | 0.179 | > 100 | 1.37 | 0.283 |  |  |  | 
2 | EGLPKPLTLRWEPSS [p49] | 0.497 | 0.497 | 71 | 2.06 | > 100 | 50.2 | > 100 | 4.69 | 33.9 | 
3 | THMTHHAVSDHEATL [p38] | 8 | > 100 | 53.7 | > 100 | > 100 | > 100 | > 100 |  |  | 
4 | VEWLRRYLENGKETL [p35*] | 0.598 | > 100 | > 100 | 0.251 | 8.06 | 0.245 | > 100 |  |  | 
5 | HKWEAAHVAEQLRAY [p30] | 0.029 | 0.118 | 0.401 | 0.379 | > 100 | 0.938 | 16.5 | 0.806 |  | 
6 | RSWTAADMAAQTTKH [p28] | 0.067 | 1.53 | 12.8 | 10.5 | > 100 | > 100 | > 100 | 1 |  | 40.5
7 | FQKWAAVVVPSGQEQR [p46*] | 0.218 | 0.326 | 0.7 | 0.626 | > 100 | > 100 | 7.35 | 1.73 |  | 
8 | AHVAEQLRAYLEGTC [p31] | 0.629 | > 100 | > 100 | 3.34 | 8.06 | 0.026 | > 100 |  |  | 
9 | LTLRWEPSSQPTIPI [p51*] | 0.525 | 0.497 | 0.072 | > 100 | > 100 | 2.44 | > 100 | 29 | 26 | 
10 | EDLRSWTAADMAAQT [p27] | > 100 | > 100 | > 100 | > 100 | > 100 | 0.648 | > 100 | 1.88 |  | 
11 | YAYDGKDYIALKEDL [p24] | 0.035 | 3.87 | 4.47 | 0.184 | > 100 | > 100 | > 100 | > 100 | > 100 | 
12 | LSFYPAEITLTWQRD [p41] | 0.05 | 0.917 | > 100 | 2.35 | > 100 | > 100 | > 100 |  |  | 
